The series can be described thus: self-splicing fitness, log relative to wild type (ln ratio); higher = more splicing; Tetrahymena group I intron in knt gene, E. coli kanamycin selection, DiMSum; sequences stand for … in CUCUCU…GGAGGGAAAAGUUAUCAGGCAUGCACCUGGUAGCUAGUCUUUAAACCAAUAGAUUGCAUCGGUUUAAAAGGCAAGACCGUCAAAUUGCGGGAAAGGGGUCAACAGCCGUUCAGUACCAAGUCUCAGGGGAAACUUUGAGAUGGCCUUGCAAAGGGUAUGGUAAUAAGCUGACGGACAUGGUCCUAACCACGCAGCCAAGUCCUAAGUCAACAGAUCUUCUGUUGAUAUGGAUGCAGUUCACAGACUAAAUGUCGGUCGGGGAAGAUGUAUUCUUCUCAUAAGAUAUAGUCGGACCUCUCCUUAAUGGGAGCUAGCGGAUGAAGUGAUGCAACACUGGAGCCGCUGGGAACUAAUUUGUAUGCGAAAGUAUAUUGAUUAGUUUUGGAGUACUCGUGGUCG
The method, boiled down: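 A randomised library covering all eight P1ex-region intron nucleotides was built with the intron in the knt kanamycin-resistance gene on pET-22b(+) and held in E. coli BL21(DE3). Cells were grown overnight at 37°C or 30°C on LB agar, with or without 25 μg/mL kanamycin, plus 100 μg/mL carbenicillin, 50 μM IPTG and 0.2% rhamnose, and pooled colonies were amplicon-sequenced on an Illumina HiSeq 2500. DiMSum fitness is the error-weighted combination of wild-type-normalised replicate fold changes, kanamycin versus none.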

± gives the uncertainty stated by the source.

Consider UCGAAGCAAUAUUACGGUGU, for which the “self-splicing fitness (ln)” value by setting is: (30 °C) -2.05 ± 0.094; (37 °C) -1.62 ± 0.15.

With UCGAAGCAAUAUUACGUAGA, the “self-splicing fitness (ln)” value was -1.81 ± 0.14 (30 °C) and -0.562 ± 0.15 (37 °C).

As to UCGAAGCAAUAUUACGUCAG, the “self-splicing fitness (ln)” value reads like this: (30 °C) -0.27 ± 0.089; (37 °C) -0.968 ± 0.12. Taken in the same sequence, the figures for UCGAAGCAAUAUUACGUCUA were 0.0685 ± 0.078 and 0.296 ± 0.077.

Turning to UCGAAGCAAUAUUACGUGAG, the “self-splicing fitness (ln)” value reads like this: (30 °C) -0.469 ± 0.053; (37 °C) -0.72 ± 0.088.

For UCGAAGCAAUAUUACGUUUU, the “self-splicing fitness (ln)” value is -3.28 ± 0.14 (30 °C) and -3.09 ± 0.29 (37 °C). In the same order, the values of UCGCAGCAAUAUUACGACCA are -1.83 ± 0.13 and -1.07 ± 0.14. As for UCGCAGCAAUAUUACGACGA, the “self-splicing fitness (ln)” value by setting is: (30 °C) -1.67 ± 0.17; (37 °C) -0.408 ± 0.14. Turning to UCGCAGCAAUAUUACGACUA, the “self-splicing fitness (ln)” value runs as follows: (30 °C) 0.0221 ± 0.14; (37 °C) -0.0509 ± 0.14.

For UCGCAGCAAUAUUACGAUCG, the “self-splicing fitness (ln)” value is -0.735 ± 0.092 (30 °C) and -0.359 ± 0.12 (37 °C). Taken in the same sequence, the figures for UCGCAGCAAUAUUACGCAUG were -3.79 ± 0.33 and -2.56 ± 0.27.

Take UCGCAGCAAUAUUACGCCAU: under “37 °C”, the “self-splicing fitness (ln)” value is -1.96 ± 0.4. On to UCGCAGCAAUAUUACGCCGA, for which the “self-splicing fitness (ln)” value was -1.83 ± 0.19 (30 °C) and -2.26 ± 0.22 (37 °C). In the case of UCGCAGCAAUAUUACGCCUC, the “self-splicing fitness (ln)” value (37 °C) was -2.36 ± 0.39. With UCGCAGCAAUAUUACGCGUG, the “self-splicing fitness (ln)” value was -3.34 ± 0.15 (30 °C) and -1.44 ± 0.14 (37 °C).

UCGCAGCAAUAUUACGCUAU: the “self-splicing fitness (ln)” value was -5.08 ± 0.36 (30 °C) and -3 ± 0.17 (37 °C). Consider UCGCAGCAAUAUUACGGCAG, for which the “self-splicing fitness (ln)” value is, setting by setting: (30 °C) -0.619 ± 0.1; (37 °C) -0.379 ± 0.11. Taken in the same sequence, the figures for UCGCAGCAAUAUUACGGCCG were -0.546 ± 0.12 and -0.522 ± 0.18. In the same order, the values of UCGCAGCAAUAUUACGGGCG are -2.7 ± 0.13 and -0.856 ± 0.12. Taken in the same sequence, the figures for UCGCAGCAAUAUUACGGGUG were -1.16 ± 0.053 and -1.03 ± 0.074. With UCGCAGCAAUAUUACGGUAA, the “self-splicing fitness (ln)” value is, setting by setting: (30 °C) -0.786 ± 0.061; (37 °C) -0.563 ± 0.071. In the same order, the values of UCGCAGCAAUAUUACGGUGA are -4.44 ± 0.46 and -2.45 ± 0.15. In the case of UCGCAGCAAUAUUACGGUGU, the “self-splicing fitness (ln)” value (37 °C) was -2.63 ± 0.24. Regarding UCGCAGCAAUAUUACGGUUG, the “self-splicing fitness (ln)” value reads like this: (30 °C) -2.75 ± 0.1; (37 °C) -1.47 ± 0.12. Taken in the same sequence, the figures for UCGCAGCAAUAUUACGUAAA were -1.69 ± 0.094 and -1.12 ± 0.12. Taken in the same sequence, the figures for UCGCAGCAAUAUUACGUAAU were -3.39 ± 0.15 and -2.19 ± 0.21.

Consider UCGGAGCAAUAUUACGAAGA, for which, where the note is “37 °C”, the “self-splicing fitness (ln)” value is -2.3 ± 0.42. Take UCGGAGCAAUAUUACGAAGU: the “self-splicing fitness (ln)” value (37 °C) is -0.529 ± 0.24.

As to UCGGAGCAAUAUUACGACAC, the “self-splicing fitness (ln)” value was -3.18 ± 0.48 (30 °C) and -1.19 ± 0.3 (37 °C). UCGGAGCAAUAUUACGAGAU: the “self-splicing fitness (ln)” value (37 °C) was -1.51 ± 0.35. As to UCGGAGCAAUAUUACGAGCC, the “self-splicing fitness (ln)” value (30 °C) is -2.93 ± 0.41. For the sequence UCGGAGCAAUAUUACGAGGA, the “self-splicing fitness (ln)” value was -3.64 ± 0.4 (30 °C) and -0.618 ± 0.21 (37 °C). UCGGAGCAAUAUUACGCGCU: where the note is “37 °C”, the “self-splicing fitness (ln)” value was -2.3 ± 0.37. With UCGGAGCAAUAUUACGCGGU, the “self-splicing fitness (ln)” value reads like this: (30 °C) -3.14 ± 0.23; (37 °C) -2.94 ± 0.43. Turning to UCGGAGCAAUAUUACGCUUG, the “self-splicing fitness (ln)” value (30 °C) was -3.64 ± 0.27 and the “self-splicing fitness (ln)” value (37 °C) was -2.83 ± 0.35.

In the case of UCGGAGCAAUAUUACGGGAA, the “self-splicing fitness (ln)” value (37 °C) is -2.08 ± 0.4.
